B1: PDS5B (parent)
chain: ITYPPGVKEISDKISKEEMVRRLK
B2: GNAI1 (parent)
chain: WIHCFEGVTAIIFCVALSDYDLVL

Variants of: B1
Assay: protein stability index of a GFP-peptide fusion (GPS, HEK-293T) (PSI 1-6); higher = more stable
Details: c terminus: a fixed tail appended
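Further: lentivirally expressed fusions sorted by FACS into six bins by GFP to DsRed ratio, PSI derived from sequencing read proportions per bin multiplied by bin number.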

Protein stability index of substitutions, site by site:
D12: F 2.71 | T 3.69 | G 3.15 | H 3.83 | A 2.75 | R 3.19 | I 3.04 | V 3.3 | P 3.7 | C 3.03 | N 4.05
S11: M 2.35 | W 2.67 | E 4.04 | G 3.92 | C 3.94 | H 4.04 | Q 4.16 | R 3.4 | A 3.85
E18: H 4.01 | S 3.21 | P 3.69 | V 3.6 | F 2.18 | M 3.12 | L 1.84 | A 4.37 | G 3.86
R21: I 3.41 | Q 4.28 | T 4.63 | E 3.69 | P 4.52 | F 3.85 | M 3.97 | K 3.34 | L 4.15
P5: C 3.62 | L 3.7 | S 4.45 | R 3.81 | Y 2.12
Y3: H 4.43 | V 4.44 | W 2.8 | Q 4.97 | K 4.64 | L 3.81
K13: G 3.75 | M 3.76 | Y 3.38 | F 3.42 | P 4.52 | C 2.79 | A 4.08 | E 4.34 | N 3.72 | L 3.3
K16: S 4.47 | G 2.83 | F 3 | A 3.92 | I 2.85 | E 3.87 | D 3.56
T2: G 4.08 | R 3.57 | K 3.55 | S 3.72 | V 2.4
G6: C 2.19 | Q 3.73 | K 4.57 | T 4.31 | V 3.27 | I 3.55 | L 3.65 | M 3.33
L23: P 4.85 | M 3.78 | S 5.11 | Y 3.7 | G 4.84 | E 4.84
V20: C 3.74 | I 3.42 | F 3.6 | N 4.4 | A 3.59
K8: A 4.5 | W 3.09 | R 3.99 | M 3.46 | L 3.7 | N 3.83 | T 4.57
S15: T 3.66 | C 3.23 | H 4.52 | A 4.27 | F 2.33
V7: N 4.24 | C 4 | M 4.06 | I 4.43 | K 4.55 | Y 3.77 | P 3.47
M19: N 4.76 | F 3.26 | H 4.74 | G 4.29 | S 5.02 | R 4.34 | I 4.24
I10: E 4.38 | L 4.33 | N 4.68 | H 3.62 | G 4.61 | P 4.27 | A 4.03 | F 4.31 | Y 4.44
I14: Y 2.68 | F 3.03 | W 3.03 | V 4.02 | L 4.08
P4: K 3.61 | M 3 | R 3.43 | C 2.81 | L 3.16 | N 3.43 | V 2.97 | Q 3.33
K24: A 3.58 | I 3.04 | H 3.85 | N 3.77 | L 2.81 | M 3.11 | V 3.61
I1: H 5.04 | S 4.78 | A 5.15 | C 4.63
E9: D 3.98 | L 2.09 | C 3.13 | Y 2.79 | P 2.75 | A 4.16 | F 2.97 | S 3.81
E17: W 2.75 | D 3.72 | K 3.82 | S 3.68 | N 3.75
R22: H 3.88 | W 2.33 | A 3.76 | M 2.89

Variants of: B2
Assay: as above
Details: c terminus: a fixed tail appended

Protein stability index of substitutions, site by site:
L24: W 1.92

Source: the supplement of paper PMC10567573
